Test results published in the supplement of paper PMC12764529.
± gives the half width of the 95% confidence interval.

Assays:
[1] = folding stability dG unfold from trypsin proteolysis; higher = more stable
How it was run: (§1)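 K50 was inferred by Bayesian fitting of sequencing counts obtained after protease digestion of designed mini-proteins. Unfolding free energy was derived by comparison with a sequence-predicted unfolded-state K50 and a shared folded-state K50, for each protease or both combined. The mini-proteins were under 80 residues, had no cysteine, were carried in a PA-tagged cDNA display construct, and were kept only if AlphaFold2 dimer inter-PAE exceeded 15.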

[2] = folding stability dG unfold from chymotrypsin proteolysis; higher = more stable
How it was run: as §1

[3] = folding stability dG unfold (combined trypsin and chymotrypsin); higher = more stable
How it was run: as §1

Sequence	folding stability dG unfold [1]	folding stability dG unfold [2]	folding stability dG unfold [3]
SAGLAAAIAAAGAIAEALGVTVRVEVFRDGELVGTFEIPAPVGDGEPVSLEVRLPDPEVTVRFELRIPGSAG [r14_728_TrMRF]	2.26 ± 0.14 kcal/mol	2.51 ± 0.037 kcal/mol	2.5 ± 0.11 kcal/mol
SFKLPPGQEIKVKIFILFVDPGDGRMYFIKIEYEITIKPDDDGNLDLDIEPTNIEVVGPMPADEAKEFFKSA [r9_423_TrROS]	2.47 ± 0.086 kcal/mol	2.54 ± 0.16 kcal/mol	2.34 ± 0.25 kcal/mol
SADDDEEQKEKQKPKPQIPIKPVATYNFPDHPFEIWEIDPDNGRIIIRFWGNGWWYEMDPEDGEWEWYPSAG [r14_359_TrROS]	1.81 ± 0.064 kcal/mol	2.26 ± 0.059 kcal/mol	2.14 ± 0.14 kcal/mol
SMTIEIEVDGKTVTVEIDPKTGKIKKVVVKDKETGEWKELSDEEIEKLLKELEDELREKREKLEKEGKEPSA [r9_368_TrROS_Hall]	2.32 ± 0.24 kcal/mol	2.5 ± 0.18 kcal/mol	2.53 ± 0.25 kcal/mol
SAGGSPARPVLVTITLPDGEEVTRRMTLEEIERLVAKDPNVKVTIELPDGSVYTVDPNTGTITKAPSAGGSA [r2_222_JUSTAS]	2.84 ± 0.075 kcal/mol	2.49 ± 0.026 kcal/mol	2.63 ± 0.14 kcal/mol
SAGGPVFEVTPEVDPDTDLVTYTVRVPADVDFAAVAKALETEFADGSRAEVKPLPDGTVVVVVRLPASAGGS [r8_255_TrMRF]	1.25 ± 0.023 kcal/mol	0.307 ± 0.12 kcal/mol	0.942 ± 0.059 kcal/mol
SAGGSAGGKIDLKDLKIVKIETVKNENGETFYRVVIEVDGKKIVLTVPENMSLEELLKKLKELSSAGGSAGG [r6_232_TrROS_Hall]	3.36 ± 0.13 kcal/mol	4.22 ± 0.055 kcal/mol	4.07 ± 0.081 kcal/mol
SAGGSAGMMPTKITVTLTLPPDAPDVEAVAERLAAELGVEVSNAEVLEVRRLPDGSREVVIELTLLSAGGSA [r15_654_JUSTAS]	4.2 ± 0.18 kcal/mol	4.18 ± 0.094 kcal/mol	4.17 ± 0.1 kcal/mol
SAGGSAGGSAGGSGPPKLRLLRRVEVVYDGLVLPPNFPLPPSAPPNLKVFVSLVTLPEGSAGGSAGGSAGGS [r4_436_TrMRF]	3.11 ± 0.091 kcal/mol	1.83 ± 0.25 kcal/mol	2.35 ± 0.43 kcal/mol
SAGGSAGGSAGGSMVLTTTVEETVVDENGVETKITVKTYKLPDSEITLVTFPDGTVTPESAGGSAGGSAGGS [r10_404_JUSTAS]	0.493 ± 0.023 kcal/mol	0.462 ± 0.1 kcal/mol	0.493 ± 0.072 kcal/mol
SAGGGMEIRLTIYRVDPETGVETSVEKEVTLEEAKEIVKEIPEEGEYTVRVTRPDRPEDVSPEELKLLSAGG [r13_254_JUSTAS]	0.246 ± 0.11 kcal/mol	-0.0215 ± 0.16 kcal/mol	0.192 ± 0.073 kcal/mol
SAGGTIIINFTWSDIKDILDYLKDNKDWKITIWMGNKPVEYPLDDLEEILQNIPMPPGQPFWIEITPSAGGS [r16_377_TrROS]	3.38 ± 0.26 kcal/mol	4.32 ± 0.14 kcal/mol	4.36 ± 0.17 kcal/mol
SAGGKPKPGQEVEMKMIMLMVTKPGEITIMRMKMEMRVNPDGNVQMDMKMEMVRVPLSKDQAKELLNASAGG [r13_544_TrROS]	2.68 ± 0.07 kcal/mol	4.25 ± 0.24 kcal/mol	3.69 ± 0.36 kcal/mol
SMKISSFTLAPGGEAVIELTFESGETRRVRLTGLTSKAEVEAEAKRLQEELEKGNPRPIKTVTVSPAPPASA [r9_1135_JUSTAS]	1.14 ± 0.064 kcal/mol	0.768 ± 0.24 kcal/mol	1 ± 0.094 kcal/mol
SIIRSPNGYWIVITVKVPEGAKPFPPGFEVQRDPEKGTLTIIMPMPPDDIRRLAEHPGVEIEKIEFIPWDSA [r9_827_TrROS]	1.14 ± 0.032 kcal/mol	2.05 ± 0.021 kcal/mol	1.74 ± 0.069 kcal/mol
SLTPEQVEKIAKTIADVFRKLGYELKVKTKVFEVNNVPVAVVEFELIDKDGKPRRFRFVIHPDGTIEIFPSA [r9_1027_TrMRF]	4.15 ± 0.07 kcal/mol	6.18 ± 0.092 kcal/mol	> 6 kcal/mol
SAGGSAGGSAGKPEFELIAKIEVNGKTYYILRNKETGEYLIYDLDTGKKYTIRKDDPNLLSAGGSAGGSAGG [r11_1007_TrROS_Hall]	2.47 ± 0.16 kcal/mol	2.95 ± 0.066 kcal/mol	2.78 ± 0.34 kcal/mol
SAGGPDNIRIDLKIEPTGDSVKITFPIYNPNGSPIKVEMEYQRVGGKKFFRMKIEFGGRPIELWIPISAGGS [r16_476_TrROS]	3.4 ± 0.13 kcal/mol	4.93 ± 0.094 kcal/mol	4.7 ± 0.22 kcal/mol
FRFTIPLPDGKKIIIDYRPMPDGNYMFDVKLQLPNGKERTIPIMVPREEFPGMPMEEMAETMVKEALKKLKS [r1_92_TrROS]	2.63 ± 0.15 kcal/mol	3.4 ± 0.13 kcal/mol	3.3 ± 0.26 kcal/mol
SAGGKKVFTLDELKKLAEELNIEKIEVKEDEEGIYTFTFTDLAKKTGKEVTIKIVRNKNGELLVEIEPSAGG [r13_163_TrROS_Hall]	1.78 ± 0.074 kcal/mol	2.9 ± 0.087 kcal/mol	2.53 ± 0.14 kcal/mol
NPGKPLEIDIEVDIFEFPGGKFAIITFPIRLPGNGYWVQIEFWINPDGGLVMKIDVYDPGNGKPEEITIPIS [r1_261_TrROS]	3.27 ± 0.27 kcal/mol	5.04 ± 0.2 kcal/mol	4.64 ± 0.2 kcal/mol

Sequence	folding stability dG unfold [1]	folding stability dG unfold [2]	folding stability dG unfold [3]
SAGGMPVTVTIVVPPGTERELAEELAEKYAKEGADVEFEERPGGLVLTMTLPGGEVVTMEIRDPAQASAGGS [r16_406_JUSTAS]	2.3 ± 0.056 kcal/mol	2.382 ± 0.023 kcal/mol	2.34 ± 0.057 kcal/mol
SKVIYVPPGATVEEILAAIKANKGKTVTIVMSREELERLKKALEEAGYEVEEVKVFEEEPYVVVKIKVKPSA [r9_1138_TrROS_Hall]	4 ± 0.17 kcal/mol	3.72 ± 0.12 kcal/mol	3.84 ± 0.18 kcal/mol
SAGGMKTFEKPMTAEEVMALLEEIAKKGNVNVTIETEGKTYEVDPSKAKPIPPENVTAKITITELPKSAGGS [r16_628_JUSTAS]	-0.051 ± 0.15 kcal/mol	-0.182 ± 0.17 kcal/mol	0.186 ± 0.28 kcal/mol
SAPLEQLLEFAEEFAQAYGYRVEIEVYRNGEPKGTYEIPMPKPGQPPVSIMIRIPDPNLYIHVTIYMPRSAG [r14_728_TrROS]	2.16 ± 0.071 kcal/mol	3.07 ± 0.041 kcal/mol	2.75 ± 0.11 kcal/mol
SAGGSAKPKIKITITRNEDGSLLVRITLPDGREVELSVDDIKALEDAGINLDDVEITEVEVSPEDLSAGGSA [r15_955_TrROS_Hall]	3.92 ± 0.12 kcal/mol	2.71 ± 0.067 kcal/mol	3.36 ± 0.13 kcal/mol
SAGGWIWIPPDDPEDAKEWARELVLMFANHMKEQGQEDMTVDVDIHVWDPKDGNWYRIPVEFRVKPDSAGGS [r8_163_TrROS]	1.97 ± 0.044 kcal/mol	2.31 ± 0.12 kcal/mol	2.19 ± 0.13 kcal/mol
SAGGSAGGSKKKKIEIIIVMSKEEAEKIAEELKKKYNIKEIKIKVIPLKKNSPKVKELLKKLKSAGGSAGGS [r12_649_TrROS_Hall]	1.03 ± 0.071 kcal/mol	1.92 ± 0.12 kcal/mol	1.62 ± 0.37 kcal/mol
SAGGSAKKKKKKKVKKVITIPVGGYKIEITYNKKTKKITVKVYKKNKNGKLLSEEEVKKLVKELLSSAGGSA [r15_735_TrROS_Hall]	1.73 ± 0.1 kcal/mol	3.4 ± 0.2 kcal/mol	2.58 ± 0.53 kcal/mol
SAGGSAFKGMPPEQVKRVIEIDHPNGKDIYIVRYKGPGHMMIFPPKEGKPIYIPMPLDEIKEFLLSSAGGSA [r15_810_TrROS]	0.337 ± 0.054 kcal/mol	0.672 ± 0.13 kcal/mol	0.548 ± 0.094 kcal/mol
SAGGSAGGSAMVIEDPKTNKLIEVEKLPDGTYKVTIYDKKTGEKKTITMSKKDLEKLLKALSAGGSAGGSAG [r3_162_TrROS_Hall]	4.91 ± 0.44 kcal/mol	4.78 ± 0.14 kcal/mol	4.81 ± 0.36 kcal/mol
SAGGSAGGSAGMVDKKTGKPVEKVKVIIRNKNGKKEEKEVTLEELKELAENLPYEIEFEKSAGGSAGGSAGG [r17_125_TrROS_Hall]	1.16 ± 0.079 kcal/mol	0.82 ± 0.1 kcal/mol	1 ± 0.25 kcal/mol
SAGGSAGGSKTVEITITRKDGKKLKIEFYPDGYIKIYDSNGKLVKTIKVDPNASIEEILKALKSAGGSAGGS [r12_990_TrROS_Hall]	3.31 ± 0.12 kcal/mol	3.38 ± 0.038 kcal/mol	3.39 ± 0.083 kcal/mol
SAGGSAGGSPVVVIEVPAEDLSPEDIKALLAAAPDENAVIVITNPDGEKRTLVFTPDGRIEPLSAGGSAGGS [r12_1054_TrROS_Hall]	0.681 ± 0.024 kcal/mol	0.451 ± 0.1 kcal/mol	0.593 ± 0.042 kcal/mol
MMYLIRVTVYDEETEEEVEEIEILIELSEEELKNMSEEEREKLLEEALKKAEELAKEYPNLKIEVEIVELPS [r1_115_TrROS_Hall]	3.52 ± 0.13 kcal/mol	4.01 ± 0.09 kcal/mol	3.83 ± 0.14 kcal/mol
SAGGSAGGEATEGTLIVGGKPVRVTVERTPEGGRIATVELPNGVTVVARLNPVTRGAEILEVVESAGGSAGG [r6_290_TrMRF]	0.773 ± 0.05 kcal/mol	1.45 ± 0.086 kcal/mol	1.17 ± 0.13 kcal/mol
SSLSIPGATKEEFEEIAEELEKKNPGVKVTVTYDPENGVITITITKPVKDKKGNLIGTETEVITITVTKPSA [r9_378_JUSTAS]	3.05 ± 0.41 kcal/mol	2.26 ± 0.072 kcal/mol	2.41 ± 0.14 kcal/mol
SMVIPPGSRAEFRLEDVPVRLEVEEGSGKVHFRVFSPENPDEEVFEAEFDINDLKPLDLPPELREAFEKESA [r9_1051_TrMRF]	0.652 ± 0.057 kcal/mol	1.18 ± 0.32 kcal/mol	0.955 ± 0.18 kcal/mol
SAGGSAGGSMRFPPGQKIEIEEWKHNPNGGNYQVSIRFKDGKKKTFTSPEDIDRLIKAGHVKISAGGSAGGS [r12_455_TrROS]	-0.0362 ± 0.26 kcal/mol	1.33 ± 0.19 kcal/mol	0.822 ± 0.21 kcal/mol
SAGGGMQAVSPVKTETKTSPDGTTTTTTTTRYPDGTVVVPVTETSPTGGAKKVATTTVSLGPPSPALASAGG [r13_494_JUSTAS]	-0.315 ± 0.085 kcal/mol	1.07 ± 0.033 kcal/mol	0.599 ± 0.093 kcal/mol
SMSPEALKKANEFAEYIAEHFKNWNIEIDVEVEWDPDGEITIRAKIEMRPPPPPPPKPKRDPNGKWKWEGSA [r9_82_TrROS]	0.943 ± 0.079 kcal/mol	2.3 ± 0.23 kcal/mol	1.84 ± 0.51 kcal/mol
